Measured values as given in patent publication US20250215467A1, “L-THREONINE TRANSALDOLASES AND USES THEREOF” (University of Delaware, priority 2022, published 2025).

Experiments:
[1] = In vitro assay over 20 h with HPLC analysis (amino acid substrate specificity, diastereomeric excess); assay type: biochemical; details: 3 as aldehyde substrate
Protocol: (§1) Metabolites of interest were quantified via high-performance liquid chromatography (HPLC) using an Agilent 1260 Infinity model equipped with a Zorbax Eclipse Plus-C18 column. To quantify aldehyde and β-OH-nsAAs, an initial mobile phase of solvent A/B=95/5 was used (solvent A, water+0.1% TFA; solvent B, acetonitrile+0.1% TFA) and maintained for 5 min. A gradient elution was performed (A/B) as follows: gradient from 95/5 to 50/50 for 5-12 min, gradient from 50/50 to 0/100 for 12-13 min, and gradient from 0/100 to 95/5 for 13-14 min. A flow rate of 1 mL min-1 was maintained, and absorption was monitored at 210, 250 and 280 nm.
We performed an in vitro assay over 20 h using 3 as the aldehyde substrate and either L-Thr, Glycine (Gly), or L-Serine (L-Ser) as the candidate amino acid. Since the TTA-ADH coupled assay is specific to L-Thr, we analyzed TTA activity via HPLC with a chemically synthesized β-OH-nsAA standard for the assumed product from 3.

[2] = In vitro CAR-TTA coupled assay with HPLC analysis; assay type: biochemical; details: CAR plus 2 μM PbTTA, 100 mM L-Thr, 20 h
Protocol: In vitro CAR activity assays were performed as previously reported (Gopal et al. biorxiv, 2022) using 2 mM NADPH and 2 mM ATP, 20 mM MgCl2, and 0.75 μM CAR and E. coli pyrophosphatase. For in vitro coupling with the CAR and TTA, the same in vitro CAR assay was performed with the addition of 2 μM TTA, 0.4 mM PLP, and 100 mM L-Thr; however, rather than monitoring the reaction with the plate reader, the plate was left shaking at 1000 RPM with an orbital radius of 1.25 mm at 30° C. overnight. The reaction was then quenched after 20 h with 100 μL of 3:1 methanol:2 M HCl. The supernatant was then separated from the protein precipitate using centrifugation and analyzed via HPLC.
as §1, with “nm. […]” for “nm.”

[3] = TTA-ADH coupled assay, screen of purified TTAs on 2-nitro-benzaldehyde; assay type: biochemical; details: substrate 3, TTA-ADH coupled assay
Protocol: (§2) High-throughput screening of purified TTAs was performed with a TTA-ADH coupled assay using purified TTA and commercially available alcohol dehydrogenase from S. cerevisiae purchased from MilliporeSigma. Aldehyde stocks were prepared in 50-100 mM solutions in DMSO or acetonitrile. Reaction mixtures were prepared in a 96-well plate with 100 μL of 100 mM phosphate buffer pH 7.5, 0.5 mM NADH, 0.4 mM PLP, 15 mM MgCl2, and 100 mM L-Thr with the addition of 0.25 mM to 1 mM aldehyde depending on the background absorbance at 340 nm (Table 4), 10 U ScADH, and 0.25 μM purified TTA unless otherwise specified. Reactions were initiated with the addition of enzyme. […] The following controls were included for every assay: reaction mixture without aldehyde, without TTA, and without enzyme (TTA or ADH). Rates were calculated by identifying the linear region at the beginning of the kinetic run and converting the depletion in absorbance to the depletion of mM NADH using an NADH standard curve.
Once purified, we identified the putative TTAs with high activity and further characterized them for their L-Thr affinity and substrate scope. We first screened each purified enzyme using the TTA-ADH coupled assay with 2-nitro-benzaldehyde, 3, the best performing substrate from the screen of ObiH that was not a substrate of the ScADH. […] With this evidence as well as well-aligned, predicted AlphaFold structures, we assumed the impact of the SUMO tag would be minimal for all TTAs screened and moved forward with additional enzyme characterization.

[4] = TTA-ADH coupled assay at different L-Thr concentrations (apparent L-Thr KM and kcat); assay type: biochemical
Protocol: as §2
We next sought to determine the affinity of these enzymes for L-Thr, which we obtained by performing the TTA-ADH coupled assay at different L-Thr concentrations (FIG. 16b). […] Two differences between our assays were the substrate, phenylacetaldehyde (14) instead of 4-nitrophenylacetylaldehyde (15), and the assay format, ADH coupling rather than a discontinuous HPLC assay. Because a live cellular environment would also contain alcohol dehydrogenases for reduction of acetaldehyde, it is possible that the KM values that we are measuring using the TTA-ADH coupled assay may be more realistic for our envisioned applications.

E. coli RARE strain = assay: β-OH-nsAA biosynthesis during aerobic fermentation in E. coli RARE strain; assay type: cell-based, Escherichia coli; details: 1 mM 3, 20 h
Protocol: as §1
For screening TTA activity in aerobically growing cells, we inoculated strains transformed with plasmids expressing TTAs into 300 μL volumes of MOPS EZ Rich media in a 96-deep-well plate with appropriate antibiotic added to maintain plasmids (50 μg/mL kanamycin (Kan)). Cultures were incubated at 37° C. with shaking at 1000 RPM and an orbital radius of 1.25 mm until an OD600 of 0.5-0.8 was reached. OD600 was measured using a SPECTRAMAX® i3× plate reader. At this point, the TTAs were induced with addition of 0.2 nM aTc for TTA expression. Then, 2 h following induction of the TTAs, 1 mM aldehyde was added to the culture. Cultures were then incubated over 20 h at 30° C. with metabolite concentration measured via supernatant sampling and submission to HPLC. […]

B1: PbTTA: L-threonine transaldolase, SEQ ID NO: 16, Parachlamydiales bacterium, MBN2478762.1 (protein, listed as Parachlamydiales bacterium)
chain: METSLKDFETILHLINKEEIDSNDTIHMTANENIMSKLSKHYLKSTLSYRYHVGMFDDQKNLTVSRSCLIKNSLMLRCLSPIFLLEQQAREYVKKMFFAEYADFRPLSGMHTVFCILSTLTKPNDRVYVFTTESVGHAATVSLLKSLGRKVSFIPFCEKKLDIDLEKLSKQILIEKPNAILFDFGTPFYPLPIREIREIVGNDVKMIYDASHVLGLIAGGQFQNPLLEGCDVLIGNTHKTFPGPQKGMILYKNKSLGKEIATEIFKSAISAQHTHHAIALYVTIIEMYIHGKEYANQIIKNNHALSQALINEGFKIFKRKNQFSLSHMIAITGDFPIDHHVACADLHNSNISTNSRILYDFPAVRIGVQEVTRKGMKEKDMVQLAKFFKEIILDRKNISSKIKEFNNKFNSIEYSLDEIYEKLF
[1]
  β-OH-nsAA formation using L-Ser or Gly: no β-OH-nsAA formation
[2]
  β-OH-nsAA production from 4-azido-benzoic acid, in vitro CAR-TTA coupling: successfully produced a β-OH-nsAA product
[3]
  activity on 2-nitro-benzaldehyde relative to ObiH: comparable to or better than ObiH
[4]; apparent, phenylacetaldehyde (14) as aldehyde, ADH coupling, non-linear regression
  Km: 10.9 mM
[4]; phenylacetaldehyde as the aldehyde substrate
  L-Thr kcat compared with ObiH: higher measured L-Thr kcat values than ObiH
E. coli RARE strain; 100 mM L-Thr
  β-OH-nsAA titer: 0.61 ± 0.04 mM
E. coli RARE strain; natural L-Thr levels
  β-OH-nsAA titer: 0.13 ± 0.01 mM
